Series [1] deals with HeLa Kyoto. As to the kind of experiment: thermal stability score vs G1/S (z-score of summed log2 fold changes over temperatures); higher = more thermally stable than in G1/S.
The subject of series [2] is HeLa Kyoto. As to the kind of experiment: solubility in G1/S (NP-40 vs SDS abundance) (log2 ratio); higher = more soluble. The following applies: cell cycle stage: G1/S.
Series [3] deals with HeLa Kyoto. As to the kind of experiment: melting temperature (median over replicates), in situ; higher = more thermally stable.
Series [4] relates to HeLa Kyoto. As to the kind of experiment: solubility change mitosis vs G1/S (difference of NP-40 vs SDS log2 ratios) (log2 ratio difference); higher = more soluble in mitosis.
Setting [5] is: cell cycle stage: early G1 (4.5 h after nocodazole release).
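For melting temperature (median over replicates), in situ in this document: HeLa Kyoto cells synchronized by double thymidine or nocodazole block, proteins quantified by TMT10plex mass spectrometry, three independent biological replicates.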
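For solubility change mitosis vs G1/S (difference of NP-40 vs SDS log2 ratios) in this document: synchronized HeLa Kyoto cells (double thymidine block for G1/S, nocodazole release for mitosis), protein amounts in NP-40 versus SDS lysates quantified by mass spectrometry, three biological replicates.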
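For solubility in G1/S (NP-40 vs SDS abundance) in this document: HeLa Kyoto cells arrested at G1/S by double thymidine block, proteins quantified by TMT10plex mass spectrometry in mild NP-40 versus SDS extracts, three biological replicates.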
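For thermal stability score vs G1/S (z-score of summed log2 fold changes over temperatures) in this document: synchronized HeLa Kyoto cells, proteins quantified by TMT10plex mass spectrometry, three biological replicates, mitosis taken 0.5 h after nocodazole release, G1/S directly after double thymidine block.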

“MGEEDYYLELCERPVQFEKANPVNCVFFDEANKQVFAVRSGGATGVVVKGPDDRNPISFRMDDKGEVKCIKFSLENKILAVQRTSKTVDFCNFIPDNSQLEYTQECKTKNANILGFCWTSSTEIVFITDQGIEFYQVLPEKRSLKLLKSHNLNVNWYMYCPESAVILLSTTVLENVLQPFHFRAGTMSKLPKFEIELPAAPKSTKPSLSERDIAMATIYGQLYVLFLRHHSRTSNSTGAEVVLYHLPREGACKKMHILKLNRTGKFALNVVDNLVVVHHQDTETSVIFDIKLRGEFDGSVTFHHPVLPARSIQPYQIPITGPAAVTSQSPVPCKLYSSSWIVFQPDIIISASQGYLWNLQVKLEPIVNLLPDKGRLMDFLLQRKECKMVILSVCSQMLSESDRASLPVIATVFDKLNHEYKKYLDAEQSYAMAVEAGQSRSSPLLKRPVRTQAVLDQSDVYTHVLSAFVEKKEMPHKFVIAVLMEYIRSLNQFQIAVQHYLHELVIKTLVQHNLFYMLHQFLQYHVLSDSKPLACLLLSLESFYPPAHQLSLDMLKRLSTANDEIVEVLLSKHQVLAALRFIRGIGGHDNISARKFLDAAKQTEDNMLFYTIFRFFEQRNQRLRGSPNFTPGEHCEEHVAFFKQIFGDQALMRPTTF [C18ORF8]”: the thermal stability score in the series with HeLa Kyoto [1] (setting [5]) came to 0.23; in the series with HeLa Kyoto [1] (cell cycle stage: mitosis), 0.326. For the same sequence, in the series on HeLa Kyoto [2], the “solubility in G1/S (log2)” value was -0.0478. Besides, the figures for the melting temperature in the series on HeLa Kyoto [3] (cell cycle stage: G1/S) and in the series with HeLa Kyoto [3] (cell cycle stage: mitosis) were 51.1 °C and 50.8 °C, respectively. Moreover, in the series on HeLa Kyoto [4], the “solubility change mitosis (log2)” value is -0.121.

In the case of “MGEIKVSPDYNWFRGTVPLKKIIVDDDDSKIWSLYDAGPRSIRCPLIFLPPVSGTADVFFRQILALTGWGYRVIALQYPVYWDHLEFCDGFRKLLDHLQLDKVHLFGASLGGFLAQKFAEYTHKSPRVHSLILCNSFSDTSIFNQTWTANSFWLMPAFMLKKIVLGNFSSGPVDPMMADAIDFMVDRLESLGQSELASRLTLNCQNSYVEPHKIRDIPVTIMDVFDQSALSTEAKEEMYKLYPNARRAHLKTGGNFPYLCRSAEVNLYVQIHLLQFHGTKYAAIDPSMVSAEELEVQKGSLGISQEEQ [SPG21]”, the values for the thermal stability score in the series with HeLa Kyoto [1] (setting [5]) and in the series with HeLa Kyoto [1] (cell cycle stage: mitosis) were 0.11 and 0.524, respectively. In the series on HeLa Kyoto [2], the “solubility in G1/S (log2)” value was 0.00691. For the same sequence, the melting temperature in the series with HeLa Kyoto [3] (cell cycle stage: G1/S) was determined as 49.5 °C; in the series with HeLa Kyoto [3] (cell cycle stage: mitosis), 49 °C. In addition, in the series on HeLa Kyoto [4], the “solubility change mitosis (log2)” value was -0.157.

As to “MGELPLDINIQEPRWDQSTFLGRARHFFTVTDPRNLLLSGAQLEASRNIVQNYRAGVVTPGITEDQLWRAKYVYDSAFHPDTGEKVVLIGRMSAQVPMNMTITGCMLTFYRKTPTVVFWQWVNQSFNAIVNYSNRSGDTPITVRQLGTAYVSATTGAVATALGLKSLTKHLPPLVGRFVPFAAVAAANCINIPLMRQRELQVGIPVADEAGQRLGYSVTAAKQGIFQVVISRICMAIPAMAIPPLIMDTLEKKDFLKRRPWLGAPLQVGLVGFCLVFATPLCCALFPQKSSIHISNLEPELRAQIHEQNPSVEVVYYNKGL [SFXN3]”, the figures for the thermal stability score in the series with HeLa Kyoto [1] (setting [5]) and in the series with HeLa Kyoto [1] (cell cycle stage: mitosis) were -0.249 and -0.897, respectively. Moreover, in the series with HeLa Kyoto [2], the “solubility in G1/S (log2)” value was determined as 0.286. The melting temperature in the series with HeLa Kyoto [3] (cell cycle stage: G1/S) was 53.6 °C; with HeLa Kyoto [3] (cell cycle stage: mitosis) it was 53.5 °C. Also, the “solubility change mitosis (log2)” value with HeLa Kyoto [4] is -0.0789.

Turning to “MGETMSKRLKLHLGGEAEMEERAFVNPFPDYEAAAGALLASGAAEETGCVRPPATTDEPGLPFHQDGKIIHNFIRRIQTKIKDLLQQMEEGLKTADPHDCSAYTGWTGIALLYLQLYRVTCDQTYLLRSLDYVKRTLRNLNGRRVTFLCGDAGPLAVGAVIYHKLRSDCESQECVTKLLQLQRSVVCQESDLPDELLYGRAGYLYALLYLNTEIGPGTVCESAIKEVVNAIIESGKTLSREERKTERCPLLYQWHRKQYVGAAHGMAGIYYMLMQPAAKVDQETLTEMVKPSIDYVRHKKFRSGNYPSSLSNETDRLVHWCHGAPGVIHMLMQAYKVFKEEKYLKEAMECSDVIWQRGLLRKGYGICHGTAGNGYSFLSLYRLTQDKKYLYRACKFAEWCLDYGAHGCRIPDRPYSLFEGMAGAIHFLSDVLGPETSRFPAFELDSSKRD [LANCL2]”, the thermal stability score was -0.346 with HeLa Kyoto [1] (setting [5]) and -0.592 in the series on HeLa Kyoto [1] (cell cycle stage: mitosis). Further, the “solubility in G1/S (log2)” value in the series with HeLa Kyoto [2] was -0.0171. Moreover, the melting temperature came out at 57.7 °C in the series on HeLa Kyoto [3] (cell cycle stage: G1/S) and 55.4 °C in the series on HeLa Kyoto [3] (cell cycle stage: mitosis). For the same sequence, in the series with HeLa Kyoto [4], the “solubility change mitosis (log2)” value was -0.119.

For the sequence “MGGCTVKPQLLLLALVLHPWNPCLGADSEKPSSIPTDKLLVITVATKESDGFHRFMQSAKYFNYTVKVLGQGEEWRGGDGINSIGGGQKVRLMKEVMEHYADQDDLVVMFTECFDVIFAGGPEEVLKKFQKANHKVVFAADGILWPDKRLADKYPVVHIGKRYLNSGGFIGYAPYVNRIVQQWNLQDNDDDQLFYTKVYIDPLKREAINITLDHKCKIFQTLNGAVDEVVLKFENGKARAKNTFYETLPVAINGNGPTKILLNYFGNYVPNSWTQDNGCTLCEFDTVDLSAVDVHPNVSIGVFIEQPTPFLPRFLDILLTLDYPKEALKLFIHNKEVYHEKDIKVFFDKAKHEIKTIKIVGPEENLSQAEARNMGMDFCRQDEKCDYYFSVDADVVLTNPRTLKILIEQNRKIIAPLVTRHGKLWSNFWGALSPDGYYARSEDYVDIVQGNRVGVWNVPYMANVYLIKGKTLRSEMNERNYFVRDKLDPDMALCRNAREMGVFMYISNRHEFGRLLSTANYNTSHYNNDLWQIFENPVDWKEKYINRDYSKIFTENIVEQPCPDVFWFPIFSEKACDELVEEMEHYGKWSGGKHHDSRISGGYENVPTDDIHMKQVDLENVWLHFIREFIAPVTLKVFAGYYTKGFALLNFVVKYSPERQRSLRPHHDASTFTINIALNNVGEDFQGGGCKFLRYNCSIESPRKGWSFMHPGRLTHLHEGLPVKNGTRYIAVSFIDP [PLOD2]”, the thermal stability score with HeLa Kyoto [1] (setting [5]) is 3.26; with HeLa Kyoto [1] (cell cycle stage: mitosis), 4.23. In addition, in the series on HeLa Kyoto [2], the “solubility in G1/S (log2)” value turned out to be 0.13. Also, the melting temperature in the series on HeLa Kyoto [3] (cell cycle stage: G1/S) was 53.9 °C; in the series on HeLa Kyoto [3] (cell cycle stage: mitosis), 54.6 °C. Further, the “solubility change mitosis (log2)” value with HeLa Kyoto [4] was -0.123.

These data come from the supplement of paper PMC5998384.
